Test results published in publication PMC7092949 (Biochemical and Biophysical Research Communications, 2004).

Biological target: T1, HR-N (SN50) peptide of the SARS-CoV spike protein (SARS-CoV, UniProt P59594 903-952)
T1 peptide: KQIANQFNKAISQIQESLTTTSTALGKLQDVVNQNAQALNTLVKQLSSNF
Assay: circular dichroism

## LGDISGINASVVNIQKEIDRLNEVAKNLNESLIDLQELGK [HR-C (SC40) peptide of the SARS-CoV spike protein]
  binding result: binds
